In one data set the test system is HT-29 tumors. Nature of the data set: Combination of DPV1047-BCH-SN38 with 5-FU or bevacizumab in the HT-29 tumor model. To be noted: 5-FU 40 mg/kg i.v. or bevacizumab 2 mg/kg i.p.
A short description of data set [1]: Stability of conjugates in citrated plasma at 37° C. (half life time, HPLC fluorescence). It is filed as in vitro ADME, human. The conditions noted are these: human, plasma. How it is done:
(§1) The stability of the conjugates was tested in citrated plasma (10% (v/v) sodium citrate buffer, 0.106M) from different species (see Table 1 below). The conjugates at 2.55 μM were incubated at 37° C. in plasma. Samples were analysed using the HPLC fluorescence method described below (see chromatographic equipment and conditions) following TFA/acetonitrile extraction and the amount of free camptothecin, analogs or derivatives thereof (e.g. SN38) released by the conjugates was measured.
(§2) Chromatographic equipment and conditions: 150 μL of each sample were placed in 1.5 mL micro-centrifuge tubes. 450 μL of 5% (v/v) TFA in H2O was added to each tube and the mixture was vortexed for 5 seconds. Samples were then centrifuged at 16000 g, 3 minutes at +4° C. 100 μL of supernatant were placed in 1.5 mL micro-centrifuge tubes. Methanol (100 μL) was then immediately added and vortexed for 5 seconds. Samples were then centrifuged at 16000 g, 3 minutes at room temperature. 150 μL of supernatant were recovered for HPLC analysis. Conjugates, metabolites and camptothecin derivative (i.e. SN38) were separated by high-performance liquid chromatography (HPLC; Agilent 1100 series equipped with a fluorescence detector) using a 4.6×100 mm ([…] particle size) Luna C18(2) column (Phenomenex ref. 00D-4251-E0, Le Pecq, France). The aqueous component of the mobile phase (A) was 0.1% (v/v) TFA in water. The organic modifier (B) was acetonitrile containing 0.1% (v/v) TFA. For the conjugate and its metabolites an elution gradient increasing linearly the proportion of B from 15 to 37% in 2 min, from 37 to 47% in 6 min, followed by 2 min at 90% was applied with a constant flow rate of 1.2 mL/min. The proportion of B was then returned to the initial condition for 3.0 min.
(§3) The half life time of conjugate corresponds to the time necessary to have 50% by mole of free camptothecin, analogs or derivatives thereof released by the conjugates of the invention. In human plasma, the half life time of conjugate DPV1047-linker #1-SN38 (less than 5 mins) was shorter than that of conjugate DPV1047-linker #2-SN38 (6-7 mins), which, in turn, was shorter than that of conjugate DPV1047-linker #3-SN38 (12 mins).
(§4) As in Example II, the stability of these conjugates was tested in either human or dog plasma. Following incubation at 37° C., samples were analyzed after a TFA acetonitrile extraction by the HPLC fluorescence method described in Example II. The in vitro cytotoxicity (IC50) of these compounds was also evaluated.

Assay in data set [2]: as above
The conditions noted are these: dog. The class given is in vitro ADME. How it is done:
as §1, §2, §3, §4

In data set [3] the test system is HCT 116 human epithelial colon carcinoma cells. Put plainly: cells. It is filed as cell-based. How it is done:
(§5) Cytotoxic evaluation was performed by seeded cells for 24 h prior to the addition of the therapeutic compound. Cells were incubated for 48 h (37° C.) with different dilutions of the therapeutic compound. Cell viability was then assessed using the WST-1 assay (Roche). The results are expressed as mean cytotoxic concentrations (IC50 value or molar concentration that inhibits 50% of cell viability) that were estimated from sigmoid regression, using Graph Pad Prism 3.02 software.
HCT 116 (ATCC #: CCL-247): human epithelial colon carcinoma cells. Cells were cultured in Mc Coy's 5a medium+1.5 mM L-glutamine and 10% fetal bovine serum. Cells were plated at a density of 8000 cells/well in 96-well plates.

Data set [4] can be described thus: Stability of conjugates in citrated plasma at 37° C. (half life time, HPLC fluorescence). It is filed as in vitro ADME. To be noted: DPV1047-linker-SN38, 2.55 μM. How it is done: as §1, §2, §3
The test system of data set [5] is NCI-H460 human epithelial lung carcinoma cells. Nature of the data set: In vitro cytotoxicity (WST-1 cell viability). The class given is cell-based. The method, then: as §5
NCI-H460 (ATCC#: HTB-177): human epithelial lung carcinoma cells. Cells were cultured in RPMI 1640+glutamax and 10% of fetal bovine serum. Cells were plated at a density of 10,000 cells/well in 96-well plates.
On the technique in general: Tetrazolium assays rely on reduction of a dye to a coloured formazan, in cell work by metabolically active cells.

[6] abbreviates: line of DPV1047-BCH-SN38 12.5 μmol/kg.
Where [7] appears, read: line of DPV1047-BCH-SN38 25 μmol/kg.
[8] abbreviates: time to 50% by mole free SN38 released, read-out: Half life time, Mouse plasma.
Setting [9] is: DPV1047-linker-SN38, 2.55 μM, citrated plasma, read-out: Half life time, Human plasma.
[10] abbreviates: DPV1047-linker-SN38, 2.55 μM, citrated plasma, read-out: Half life time, Dog plasma.

The text below walks through data of patent US8410045B2, “Camptothecin-peptide conjugates and pharmaceutical compositions containing the same” (Drais Pharmaceuticals, Inc., priority 2006, dated 2013).

Read-outs that look alike come from different tables or passages of the source. Where a SMILES comes first, the peptide text is derived from it. Where no end group is shown, it is not given here. The star is where a group is joined. X2 = CCc1c2c(nc3ccc(OC(=O)[C@H]4CC[C@H](CNC(=O)CCCCCNC(=O)C5CCC(CN6C(=O)CC(*)C6=O)CC5)CC4)cc13)-c1cc3c(c(=O)n1C2)COC(=O)[C@]3(O)CC; X3 = CCc1c2c(nc3ccc(OC(=O)CCCCCNC(=O)C4CCC(CN5C(=O)CC(*)C5=O)CC4)cc13)-c1cc3c(c(=O)n1C2)COC(=O)[C@]3(O)CC

Procedure for HT-29 tumors: Mice were implanted with HT-29 tumors and treated by intraperitoneal administration (bevacizumab) or bolus intravenous injection (5-FU or DPV1047-BCH-SN38) at 10 μL/g. […] The T/C ratio was calculated following treatment with either bevacizumab, 5-FU or DPV1047-BCH-SN38. These T/C ratios were used to evaluate the expected T/C for combined treatment with bevacizumab and DPV1047-BCH-SN38, or 5-FU and DPV1047-BCH-SN38 (T/C of DPV1047-BCH-SN38×T/C of bevacizumab or 5-FU). […] The combination index of the two molecules was calculated by dividing the expected T/C by the observed T/C.

For the molecule “bevacizumab: bevacizumab (Avastin®, Roche)”, the “Single treatment Reference drug T/C %” value in the data set with HT-29 tumors (setting [6]) and in the data set with HT-29 tumors (setting [7]) was 67% each time.
Consider `CCc1c2c(nc3ccc(OC(=O)[C@H]4CC[C@H](CNC(=O)C5CCC(CN6C(=O)CC(SCC(N)C(=O)N[C@@H](C(=O)N[C@H](CCCCN)C(=O)N[C@H](CCCNC(=N)N)C(=O)NCC(=O)N[C@H](CC(C)C)C(=O)N[C@H](CCCCN)C(=O)N[C@H](CC(C)C)C(=O)N[C@H](CCCNC(=N)N)C(=O)N[C@H](Cc7c[nH]cn7)C(=O)N[C@@H](C(=O)N[C@H](CCCNC(=N)N)C(=O)N7CCC[C@@H]7C(=O)N[C@H](CCCNC(=N)N)C(=O)N[C@@H](C(=O)N[C@@H](C(=O)N[C@H](CCCNC(=N)N)C(=O)N[C@H](CCSC)C(=O)N[C@H](CC(=O)O)C(=O)N[C@@H](C(=O)O)C(C)C)[C@H](C)O)C(C)C)C(C)C)C(C)C)C6=O)CC5)CC4)cc13)-c1cc3c(c(=O)n1C2)COC(=O)[C@]3(O)CC` (some centres unmarked) [DPV1047(D)-linker #5-SN38], for which the half-life in data set [1] (Table 12, CPP-linker #5-SN38 conjugates incl. D conformation, read-out: Human Plasma Half life time) was 1.83 h; in data set [2] (Table 12, CPP-linker #5-SN38 conjugates incl. D conformation, read-out: Dog Plasma Half life time), 2.75 h. Moreover, in data set [3] (48 h), the IC50 came to 23 nM.
Regarding `CCc1c2c(nc3ccc(OC(=O)[C@H]4CC[C@H](CNC(=O)CCCCCNC(=O)C5CCC(CN6C(=O)CC(SC[C@H](N)C(=O)N[C@H](C(=O)N[C@@H](CCCCN)C(=O)N[C@@H](CCCNC(=N)N)C(=O)NCC(=O)N[C@@H](CC(C)C)C(=O)N[C@@H](CCCCN)C(=O)N[C@@H](CC(C)C)C(=O)N[C@@H](CCCNC(=N)N)C(=O)N[C@@H](Cc7c[nH]cn7)C(=O)N[C@H](C(=O)N[C@@H](CCCNC(=N)N)C(=O)N7CCC[C@H]7C(=O)N[C@@H](CCCNC(=N)N)C(=O)N[C@H](C(=O)N[C@H](C(=O)N[C@@H](CCCNC(=N)N)C(=O)N[C@@H](CCSC)C(=O)N[C@@H](CC(=O)O)C(=O)N[C@H](C(=O)O)C(C)C)[C@@H](C)O)C(C)C)C(C)C)C(C)C)C6=O)CC5)CC4)cc13)-c1cc3c(c(=O)n1C2)COC(=O)[C@]3(O)CC` (some centres unmarked) [DPV1047-linker #7-SN38] (H-C(X2)VKRGLKLRHVRPRVTRMDV-OH; N-terminus and C-terminus assumed), the half-life in data set [4] (setting [8]) is below 0.05 h; in data set [4] (monkey) it was 1.5 h; in data set [4] (rat) it was 0.15 h; in data set [1] (setting [9]) it was 2.5 h; in data set [2] (setting [10]) it was 2.75 h.
Take `CC[C@@]1(O)C(=O)OCc2c1cc1n(c2=O)Cc2cc3cc(O)ccc3nc2-1` [10-Hydroxycamptothecin, reference compound]: the IC50 in data set [5] (Homo sapiens, NCI-H460, 48 h, read-out: Drug concentration that inhibits 50% of cell viability (IC50), NCI-H460) amounted to 21 nM; in data set [3] (Homo sapiens, HCT-116, 48 h, read-out: Drug concentration that inhibits 50% of cell viability (IC50), HCT 116) it was 64 nM.
Regarding `CC[C@H](C)[C@H](NC(=O)[C@H](CCCCN)NC(=O)[C@@H](NC(=O)[C@H](CCC(N)=O)NC(=O)[C@H](CCCNC(=N)N)NC(=O)[C@@H](N)CSC1CC(=O)N(CC2CCC(C(=O)NC[C@H]3CC[C@H](C(=O)Oc4ccc5nc6c(cc5c4)Cn4c-6cc5c(c4=O)COC(=O)[C@]5(O)CC)CC3)CC2)C1=O)[C@@H](C)CC)C(=O)N[C@@H](Cc1c[nH]c2ccccc12)C(=O)N[C@@H](Cc1ccccc1)C(=O)N[C@@H](CCC(N)=O)C(=O)N[C@@H](CC(N)=O)C(=O)N[C@@H](CCCNC(=N)N)C(=O)N[C@@H](CCCNC(=N)N)C(=O)N[C@@H](CCSC)C(=O)N[C@@H](CCCCN)C(=O)N[C@@H](Cc1c[nH]c2ccccc12)C(=O)N[C@@H](CCCCN)C(=O)N[C@@H](CCCCN)C(=O)O` (some centres unmarked), the half-life in data set [1] (Table 14, 10-Hydroxycamptothecin conjugates, read-out: Human Plasma Half life time) was found to be 0.533 h; in data set [2] (Table 14, 10-Hydroxycamptothecin conjugates, read-out: Dog Plasma Half life time) it was 1.83 h. The IC50 in data set [5] (48 h) worked out at 161 nM; in data set [3] (48 h), 194 nM.
Turning to `CCc1c2c(nc3ccc(OC(=O)CCCCCNC(=O)C4CCC(CN5C(=O)CC(SC[C@H](N)C(=O)N[C@H](C(=O)N[C@@H](CCCCN)C(=O)N[C@@H](CCCNC(=N)N)C(=O)NCC(=O)N[C@@H](CC(C)C)C(=O)N[C@@H](CCCCN)C(=O)N[C@@H](CC(C)C)C(=O)N[C@@H](CCCNC(=N)N)C(=O)N[C@@H](Cc6c[nH]cn6)C(=O)N[C@H](C(=O)N[C@@H](CCCNC(=N)N)C(=O)N6CCC[C@H]6C(=O)N[C@@H](CCCNC(=N)N)C(=O)N[C@H](C(=O)N[C@H](C(=O)N[C@@H](CCCNC(=N)N)C(=O)N[C@@H](CCSC)C(=O)N[C@@H](CC(=O)O)C(=O)N[C@H](C(=O)O)C(C)C)[C@@H](C)O)C(C)C)C(C)C)C(C)C)C5=O)CC4)cc13)-c1cc3c(c(=O)n1C2)COC(=O)[C@]3(O)CC` (some centres unmarked) [DPV1047-linker #4-SN38] (H-C(X3)VKRGLKLRHVRPRVTRMDV-OH), the half-life is below 0.05 h in data set [4] (setting [8]); 0.5 h in data set [4] (monkey); 0.05 h in data set [4] (rat); 0.667 h in data set [1] (setting [9]); 1.75 h in data set [2] (setting [10]).
`CCc1c2c(nc3ccc(OC(=O)[C@H]4CC[C@H](CNC(=O)C5CCC(CN6C(=O)CC(SC[C@H](N)C(=O)N[C@@H](CCCNC(=N)N)C(=O)N[C@@H](CCC(N)=O)C(=O)N[C@H](C(=O)N[C@@H](CCCCN)C(=O)N[C@H](C(=O)N[C@@H](Cc7c[nH]c8ccccc78)C(=O)N[C@@H](Cc7ccccc7)C(=O)N[C@@H](CCC(N)=O)C(=O)N[C@@H](CC(N)=O)C(=O)N[C@@H](CCCNC(=N)N)C(=O)N[C@@H](CCCNC(=N)N)C(=O)N[C@@H](CCSC)C(=O)N[C@@H](CCCCN)C(=O)N[C@@H](Cc7c[nH]c8ccccc78)C(=O)N[C@@H](CCCCN)C(=O)N[C@@H](CCCCN)C(=O)O)[C@@H](C)CC)[C@@H](C)CC)C6=O)CC5)CC4)cc13)-c1cc3c(c(=O)n1C2)COC(=O)[C@]3(O)CC` (some centres unmarked) [Penetratin-linker #5-SN38]: the half-life worked out at 1 h in data set [1] (Table 10, SN38 conjugates, read-out: Human Plasma Half life time) and 2.5 h in data set [2] (Table 10, SN38 conjugates, read-out: Dog Plasma Half life time). Also, the IC50 was 53 nM in data set [5] (24 h) and 57 nM in data set [3] (24 h).
Take `O=c1[nH]cc(F)c(=O)[nH]1` [5-FU, 5-fluorouracil, reference compound]: the results for the “Single treatment Reference drug T/C %” value with HT-29 tumors (setting [6]) and with HT-29 tumors (setting [7]) were 90% and 94%, respectively.
Turning to “Tat-linker #7-10 Hydroxycamptothecin: Tat48-60 peptide coupled via linker #7 to 10-Hydroxycamptothecin (GRKKRRQRRRAHQ; also: coupled via linker #7 to 10-hydroxycamptothecin, site not given here; UniProt P04608 48-60, looked up, fragment)”, the IC50 in data set [5] (Table 15, 48 h continuous exposure, mean of three independent experiments, read-out: Drug concentration that inhibits 50% of cell viability (IC50), NCI-H460) was determined as 127 nM; in data set [3] (Table 15, 48 h continuous exposure, mean of three independent experiments, read-out: Drug concentration that inhibits 50% of cell viability (IC50), HCT 116), 158 nM.
